The text below walks through data of the supplement of paper PMC10724198.

± gives the standard deviation of the averaged measurements.
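Further: PSI is a weighted mean of sequencing reads over stability bins, variants kept only with over 10 reads, mCherry proximal and sfGFP distal, peptide attached via GGGS linker.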

The data set relates to Saccharomyces cerevisiae. Briefly: protein stability index of tFT-peptide fusion (C-terminal peptide) (PSI (0-1 scale)); higher = more stable (slower turnover). The conditions noted are these: genetic background: wild type; temperature: 30 C.
Regarding QLRRPPPPLPLP, the protein stability index was 0.714 ± 0.0072. The value for QLSSARTILRRP was 0.597 ± 0.0085; that for QNHKSYQTQDHN was 0.616 ± 0.051; that for QNLEDDLSIAGS was 0.703 ± 0.02. In turn, QNNRKEIKRNEI had a protein stability index of 0.6662 ± 0.0039.

QNPRTDEAVRSP came in with a protein stability index of 0.619 ± 0.011. The sequence QPPAKSRETKYR registered a protein stability index of 0.741 ± 0.031. QPPPPRLPPRPP returned a protein stability index of 0.622 ± 0.0027.

Sequence QPRPSISGLSPT returned a protein stability index of 0.642 ± 0.02. Sequence QQKKCNTIKKNE yielded a protein stability index of 0.637 ± 0.0024. Under QQLWQTHEHQAR stands 0.674 ± 0.035.

QQQSTKHSEERV registered a protein stability index of 0.691 ± 0.014.

In the case of QRGDDFHDTSPA, the protein stability index was determined as 0.708 ± 0.0082.

In the case of QRGEGTSQGILT, the protein stability index stood at 0.807 ± 0.13. The value for QSAFLFGFMSFW was 0.62 ± 0.025. QSFGSYYLTIAL had a protein stability index of 0.67 ± 0.036. Sequence QSHNDIRDGPPR showed a protein stability index of 0.679 ± 0.021. QSIESKKIKQKE displayed a protein stability index of 0.7109 ± 0.0048. QSNPAERASSRL: the protein stability index is 0.692 ± 0.022. Under QSQMEKGTIVWT stands 0.705 ± 0.011; under QSSWVGRGVRGG, 0.647 ± 0.014.

For QTLKKRRNRSRG, the protein stability index was 0.684 ± 0.041. Under QTLQHLQTPSIS stands 0.761 ± 0.092.

Sequence QTYEGSKGHLRD had a protein stability index of 0.6625 ± 0.0044. The value for QTYQQSVKNRDD was 0.666 ± 0.061; that for QVDVLVCKLEVP was 0.672 ± 0.11; that for QVFKHVKHIEFD was 0.725 ± 0.062. The value for QVHPKRPLNQSL was 0.735 ± 0.054.

QVSLLVKKSKLR: the protein stability index is 0.679 ± 0.049. Sequence QVYGEWASAGWG registered a protein stability index of 0.718 ± 0.04.

Consider QWLGRDLKSREL, for which the protein stability index amounted to 0.691 ± 0.064.

In turn, RACKKGTKRIRI showed a protein stability index of 0.613 ± 0.06. The value for RAGHREIARQKG was 0.6307 ± 0.0013; that for RAGPPPPPSITL was 0.83 ± 0.085; that for RAGRVRAPGRWP was 0.728 ± 0.017. Under RAIRWFGGRLVG stands 0.7228 ± 0.0049. RAKGTGRRLGVA: the protein stability index came out at 0.676 ± 0.013. Under RALVIKREALQI stands 0.59 ± 0.03; under RASGNHVNQVDC, 0.719 ± 0.036.

RASGSFPSLVFS returned a protein stability index of 0.734 ± 0.12.

As to RASWVRTLMSCQ, the protein stability index turned out to be 0.58161 ± 0.00022. In turn, RATERIVNIKGK displayed a protein stability index of 0.63277 ± 0.00036.

In turn, RATLPPSAASLP displayed a protein stability index of 0.677 ± 0.1. The value for RATSCAAPLLAR was 0.6009 ± 0.0047. As to RATTDGGRGGRR, the protein stability index was determined as 0.696 ± 0.037. Under RAVAGGPMPGSG stands 0.732 ± 0.044; under RCAIMGRGGIVT, 0.686 ± 0.018. Turning to RCGVGGAVSFWW, the protein stability index amounted to 0.72 ± 0.05.

As to RCLGVCRAESLP, the protein stability index stood at 0.682 ± 0.034.

As for RCQYRRTMSITI, the protein stability index was determined as 0.635 ± 0.034. Regarding RCRNVGAVATPR, the protein stability index was 0.643 ± 0.1. The value for RCSDILGKGKHV was 0.661 ± 0.0084; that for RDAGPSKERNRR was 0.675 ± 0.039; that for RDARTWTVSHGT was 0.703 ± 0.033. Turning to RDELSYIDICLT, the protein stability index came to 0.691 ± 0.025. Under RDFLLLASHLRF stands 0.764 ± 0.056; under RDGYMVKVYGVK, 0.707 ± 0.1. The sequence RDLEAVRSEDHR gave a protein stability index of 0.6766 ± 0.0047.

For the sequence RDLLYHNCRNMI, the protein stability index worked out at 0.695 ± 0.027. RDLYHPFQSHQS displayed a protein stability index of 0.705 ± 0.019.

As to RDPSVVGLGRPP, the protein stability index worked out at 0.604 ± 0.0076. The value for RDPTTYGRSKEN was 0.655 ± 0.023; that for RDQPPPLPFTRP was 0.712 ± 0.1; that for RDRGWSRGRQVH was 0.662 ± 0.015.

As for RDSKDMTWISTS, the protein stability index came out at 0.6755 ± 0.0024. Under RDSVLSFSALQV stands 0.681 ± 0.0097; under REIVLQTSAAYN, 0.613 ± 0.037. The value for REKRSVTQSTTD was 0.796 ± 0.12; that for REKSLKINKKKN was 0.676 ± 0.0068.

The sequence RERLSRGGEGFE had a protein stability index of 0.693 ± 0.021.

In turn, RERRGPTDLKRH registered a protein stability index of 0.712 ± 0.041. The value for RFARQSNTFSQS was 0.659 ± 0.013; that for RFASGAVLSWAC was 0.695 ± 0.015; that for RFEISNLVFIPR was 0.686 ± 0.033. The value for RFFGAVSFQFCL was 0.699 ± 0.011; that for RFFYGGRRTQQT was 0.753 ± 0.058. Under RFLAHLVRPFCG stands 0.722 ± 0.039; under RFNGWRDKEAME, 0.707 ± 0.036; under RFNLLLSATEDR, 0.716 ± 0.07.

Take RFPFFLLPPLSS: the protein stability index was determined as 0.65 ± 0.091.
